{
  "source": "patent US7888372B2",
  "about": "“Compositions and methods for modulating bone mineral deposition” (National Institutes of Health (NIH), priority 2001, dated 2011)",
  "key": {"[1]": {"tested_on": "wild-type osteoblastic cells", "test": "Predicted effect of factors expressed or delivered on PPi and mRNA expression", "assay_type": "cell-based, mouse", "from_the_text": "In order to test the hypothesis that PPi itself represents the signaling molecule that influences the transcription of the TNAP, PC-1 and ANK genes, we examine the levels of TNAP, PC-1 and ANK in calvarial tissue and osteoblasts from the mutant mouse lines and in the rescued mouse strains and by measure mRNA for TNAP, PC-1 and ANK by Northern blot analysis. Subsequently, cells from the different mutant strains and rescued mice are exposed to medium with different concentrations of PPi, or non-hydrolyzable analogues (phosphocitrate and the biphosphonate etidronate), for various time points and tested for changes in mRNA levels of the three genes. In addition, in vitro cytoplasmic and nuclear microinjection of PPi and analogues into osteoblastic cells are performed to examine the effect of intracellular PPi on these same genes. Measurements of mRNA changes are monitored by real-time RT-PCR using an ABI 7700 Sequence Detection system to facilitate these measurements.\nThese evaluations are done on osteoblastic cells from the different mutant mice and cross-bred strains with or without rescue of the deficient molecule after specifically transfecting the respective cDNAs back into the deficient cells. As a control for the transfections, we employ mutant enzyme-deficient PC-1 (Johnson et al., J. Bone Miner. Res. 14:883-892, 1999; Johnson et al., Arthritis Rheum. 42:1986-1997, 1999), mutant ANK (Ho et al., Science 289:265-270, 2000), and mutant enzyme-deficient TNAP (Wennberg et al., J. Bone Mineral Res., 2000). The table summarizes the experiments to be performed and the results that are expected."}, "[2]": {"tested_on": "TNAP-/- mice", "test": "Administration of exogenous pyridoxal HCl to TNAP-/- mice", "assay_type": "in vivo, mouse", "from_the_text": "At the time that we were developing the TNAP knock-out mice, Waymire et al. (Nature Genet. 11:45-51, 1995) independently reported the production of TNAP knock-out mice. […] These studies provided support to the hypothesis, set forth by Michael P. Whyte in his studies of human hypophosphatasia, that pyridoxal-5′-phosphate (vitamin B6) might be a natural substrate of TNAP. The rationale for this hypothesis is that pyridoxal-5′-phosphate cannot easily traverse biological membranes but that the related, more hydrophobic derivatives, pyridoxal and pyridoxamine can do so with much better kinetics. Thus, the presumption is that the cells that are deficient in TNAP cannot dephosphorylate pyridoxal-5′-phosphate on the outside of the cells leading to an intracellular deficiency of Vitamin B6 (Whyte, Endocrine Rev. 15:439-461, 1994). […] Control mice fed a vitamin B6-depleted diet developed epileptic seizures indistinguishable from those observed in TNAP−/− mice, abnormal apoptosis in the thymus and thinning of the nerve roots."}, "[3]": {"tested_on": "TNAP ko osteoblasts", "test": "Mineralization of bone nodules in primary TNAP ko osteoblast cultures (von Kossa)", "assay_type": "cell-based, mouse", "settings": "added to the ko osteoblast culture medium", "experimental": "Primary cultures of osteoblasts were isolated from calvariae of 1-4 day old pups that were hybrids of C57Bl/6×129/J mouse strains with wild-type, heterozygote and homozygote TNAP null genotypes. Isolation was performed by a slightly modified version of the time sequential collagenase technique described by Boonekamp et al. (Proc. Kon. Ned. Akad. Wet. B87:371-382, 1984). In brief, calvariae of the same genotype were pooled and three 10 minute incubations in 4 mM EDTA, 137 mM NaCl, 2.7 mM KCl, 3 mM NaH2PO4, pH 7.2, were performed, followed by seven 10 minute digestions in EDTA-free buffer, containing 180 units/ml collagenase type II (Worthington Biochemical Corporation, Lakewood, N.J.). All isolations were performed at 37° C. in a shaking water bath. The last five collagenase digestions, containing an enriched cell population of osteoblastic phenotype, were pooled and seeded at 4×10^4 cells/cm^2 in αMEM (Gibco BRL, Grand Island, N.Y.), containing 10% heat-inactivated FCS, penicillin (50 U/ml) and streptomycin ([…]).\nTo study mineralization, we used conditions under which we observed that osteoblasts normally formed von Kossa stain positive and alizarin red positive nodules at 7-10 days in culture. In brief, primary calvarial osteoblasts were cultured in complete αMEM media as described above, supplemented with β-glycerophosphate (10 mM) every third day and L-ascorbic acid (50 μg/ml) daily. MC3T3-E1 cells (Johnson et al., J. Bone Min. Res. 14:883-892, 1999) were maintained in the same medium, and for each experiment were plated at 80% confluence (1×10^6 cells in a 10 cm tissue-culture plastic dish in 5 ml) and received β-glycerophosphate and L-ascorbic acid as for primary osteoblasts above.\nTo evaluate the ability of primary osteoblasts to form and mineralize bone nodules in vitro, wild-type (wt), heterozygous and knock-out (ko) osteoblasts were cultured in media supplemented with ascorbic acid, using β-glycerophosphate as phosphate source. […] The extent of bone mineral deposition in these cultures was confirmed by quantifications of deposited calcium. […]"}},
  "data": [
    {"molecule": "ANK: factor expressed in wild-type osteoblastic cells by transfecting the cDNA (Table 1)", "values": [
      {"measurement": "Predicted effect on PPi, Extracellular", "setting": "[1]", "result": "⇑"},
      {"measurement": "Predicted effect on PPi, Intracellular", "setting": "[1]", "result": "↓"},
      {"measurement": "Predicted effect on mRNA expression, ANK", "setting": "[1]", "result": "↓"},
      {"measurement": "Predicted effect on mRNA expression, TNAP", "setting": "[1]", "result": "⇑"}
    ]},
    {"molecule": "Cc1ncc(CO)c(C=O)c1O.Cl", "note": "[pyridoxal HCl]", "values": [
      {"measurement": "episodes of apnea", "setting": "[2]", "result": "episodes of apnea ceased"},
      {"measurement": "hypomineralization and accumulation of osteoid", "setting": "[2]", "result": "continued to worsen with age"},
      {"measurement": "life span", "setting": "[2]", "result": "increased the life span"},
      {"measurement": "myelinization of lumbar nerve roots", "setting": "[2]", "result": "improved"},
      {"measurement": "onset of epileptic attacks", "setting": "[2]", "result": "delayed the onset of epileptic attacks"}
    ]},
    {"molecule": "heat-inactivated recombinant TNAP: heat-inactivated recombinant TNAP (protein, UniProt P05186 18-501, looked up, heat-inactivated) Alkaline phosphatase, …: LVPEKEKDPKYWRDQAQETLKYALELQKLNTNVAKNVIMFLGDGMGVSTVTAARILKGQLHHNPGEETRLEMDKFPFVALSKTYNTNAQVPDSAGTATAYLCGVKANEGTVGVSAATERSRCNTTQGNEVTSILRWAKDAGKSVGIVTTTRVNHATPSAAYAHSADRDWYSDNEMPPEALSQGCKDIAYQLMHNIRDIDVIMGGGRKYMYPKNKTDVEYESDEKARGTRLDGLDLVDTWKSFKPRYKHSHFIWNRTELLTLDPHNVDYLLGLFEPGDMQYELNRNNVTDPSLSEMVVVAIQILRKNPKGFFLLVEGGRIDHGHHEGKAKQALHEAVEMDRAIGQAGSLTSSEDTLTVVTADHSHVFTFGGYTPRGNSIFGLAPMLSDTDKKPFTAILYGNGPGYKVVGGERENVSMVDYAHNNYQAQSAVPLRHETHGGEDVAVFSKGPMAHLLHGVHEQNYVPHVMAYAACIGANLGHCAPAS", "values": [
      {"measurement": "induction of mineralization", "setting": "[3]", "result": "neither heat-inactivated recombinant TNAP, nor enzymatically inactive mutants of TNAP, such as [R54C]TNAP or [V365I]TNAP, were able to induce mineralization"}
    ]},
    {"molecule": "[R54C]TNAP: enzymatically inactive mutant of TNAP (protein, UniProt P05186 18-501, looked up, variant R54C) Alkaline phosphatase, …: LVPEKEKDPKYWRDQAQETLKYALELQKLNTNVAKNVIMFLGDGMGVSTVTAACILKGQLHHNPGEETRLEMDKFPFVALSKTYNTNAQVPDSAGTATAYLCGVKANEGTVGVSAATERSRCNTTQGNEVTSILRWAKDAGKSVGIVTTTRVNHATPSAAYAHSADRDWYSDNEMPPEALSQGCKDIAYQLMHNIRDIDVIMGGGRKYMYPKNKTDVEYESDEKARGTRLDGLDLVDTWKSFKPRYKHSHFIWNRTELLTLDPHNVDYLLGLFEPGDMQYELNRNNVTDPSLSEMVVVAIQILRKNPKGFFLLVEGGRIDHGHHEGKAKQALHEAVEMDRAIGQAGSLTSSEDTLTVVTADHSHVFTFGGYTPRGNSIFGLAPMLSDTDKKPFTAILYGNGPGYKVVGGERENVSMVDYAHNNYQAQSAVPLRHETHGGEDVAVFSKGPMAHLLHGVHEQNYVPHVMAYAACIGANLGHCAPAS", "values": [
      {"measurement": "induction of mineralization", "setting": "[3]", "result": "nor enzymatically inactive mutants of TNAP, such as [R54C]TNAP or [V365I]TNAP, were able to induce mineralization"}
    ]},
    {"molecule": "TNAP: factor expressed in wild-type osteoblastic cells by transfecting the cDNA (Table 1) (protein) FVPEKERDPSYWRQQAQETLKNALKLQKLNTNVAKNVIMFLGDGMGVSTVTAARILKGQLHHNTGEETRLEMDKFPFVALSKTYNTNAQVPDSAGTATAYLCGVKANEGTVGVSAATERTRCNTTQGNEVTSILRWAKDAGKSVGIVTTTRVNHATPSAAYAHSADRDWYSDNEMPPEALSQGCKDIAYQLMHNIKDIDVIMGGGRKYMYPKNRTDVEYELDEKARGTRLDGLDLISIWKSFKPRHKHSHYVWNRTELLALDPSRVDYLLGLFEPGDMQYELNRNNLTDPSLSEMVEVALRILTKNLKGFFLLVEGGRIDHGHHEGKAKQALHEAVEMDQAIGKAGAMTSQKDTLTVVTADHSHVFTFGGYTPRGNSIFGLAPMVSDTDKKPFTAILYGNGPGYKVVDGERENVSMVDYAHNNYQAQSAVPLRHETHGGEDVAVFAKGPMAHLLHGVHEQNYIPHVMAYASCIGANLDHCAWAG", "values": [
      {"measurement": "Predicted effect on PPi, Extracellular", "setting": "[1]", "result": "↓"},
      {"measurement": "Predicted effect on PPi, Intracellular", "setting": "[1]", "result": "↓"},
      {"measurement": "Predicted effect on mRNA expression, ANK", "setting": "[1]", "result": "⇑"},
      {"measurement": "Predicted effect on mRNA expression, PC-1", "setting": "[1]", "result": "⇑"}
    ]},
    {"molecule": "iPPiase: inorganic pyrophosphatase, factor expressed in wild-type osteoblastic cells (Table 1) (protein, UniProt Q15181 2-289, looked up) Inorganic pyrophosphatase: SGFSTEERAAPFSLEYRVFLKNEKGQYISPFHDIPIYADKDVFHMVVEVPRWSNAKMEIATKDPLNPIKQDVKKGKLRYVANLFPYKGYIWNYGAIPQTWEDPGHNDKHTGCCGDNDPIDVCEIGSKVCARGEIIGVKVLGILAMIDEGETDWKVIAINVDDPDAANYNDINDVKRLKPGYLEATVDWFRRYKVPDGKPENEFAFNAEFKDKDFAIDIIKSTHDHWKALVTKKTNGKGISCMNTTLSESPFKCDPDAARAIVDALPPPCESACTVPTDVDKWFHHQKN", "values": [
      {"measurement": "Predicted effect on PPi, Extracellular", "setting": "[1]", "result": "="},
      {"measurement": "Predicted effect on PPi, Intracellular", "setting": "[1]", "result": "↓"},
      {"measurement": "Predicted effect on mRNA expression, ANK", "setting": "[1]", "result": "⇑"},
      {"measurement": "Predicted effect on mRNA expression, PC-1", "setting": "[1]", "result": "⇑"},
      {"measurement": "Predicted effect on mRNA expression, TNAP", "setting": "[1]", "result": "↓"}
    ]},
    {"molecule": "PC-1: factor expressed in wild-type osteoblastic cells by transfecting the cDNA (Table 1) (protein) MERDGDQAGHGPRHGSAGNGRELESPAAASLLAPMDLGEEPLEKAERARPAKDPNTYKVLSLVLSVCVLTTILGCIFGLKPSCAKEVKSCKGRCFERTFSNCRCDAACVSLGNCCLDFQETCVEPTHIWTCNKFRCGEKRLSRFVCSCADDCKTHNDCCINYSSVCQDKKSWVEETCESIDTPECPAEFESPPTLLFSLDGFRAEYLHTWGGLLPVISKLKNCGTYTKNMRPMYPTKTFPNHYSIVTGLYPESHGIIDNKMYDPKMNASFSLKSKEKFNPLWYKGQPIWVTANHQEVKSGTYFWPGSDVEIDGILPDIYKVYNGSVPFEERILAVLEWLQLPSHERPHFYTLYLEEPDSSGHSHGPVSSEVIKALQKVDRLVGMLMDGLKDLGLDKCLNLILISDHGMEQGSCKKYVYLNKYLGDVNNVKVVYGPAARLRPTDVPETYYSFNYEALAKNLSCREPNQHFRPYLKPFLPKRLHFAKSDRIEPLTFYLDPQWQLALNPSERKYCGSGFHGSDNLFSNMQALFIGYGPAFKHGAEVDSFENIEVYNLMCDLLGLIPAPNNGSHGSLNHLLKKPIYNPSHPKEEGFLSQCPIKSTSNDLGCTCDPWIVPIKDFEKQLNLTTEDVDDIYHMTVPYGRPRILLKQHHVCLLQQQQFLTGYSLDLLMPLWASYTFLRNDQFSRDDFSNCLYQDLRIPLSPVHKCSYYKSNSKLSYGFLTPPRLNRVSNHIYSEALLTSNIVPMYQSFQVIWHYLHDTLLQRYAHERNGINVVSGPVFDFDYDGRYDSLEILKQNSRVIRSQEILIPTHFFIVLTSCKQLSETPLECSALESSAYILPHRPDNIESCTHGKRESSWVEELLTLHRARVTDVELITGLSFYQDRQESVSELLRLKTHLPIFSQED", "values": [
      {"measurement": "Predicted effect on PPi, Extracellular", "setting": "[1]", "result": "⇑"},
      {"measurement": "Predicted effect on PPi, Intracellular", "setting": "[1]", "result": "⇑"},
      {"measurement": "Predicted effect on mRNA expression, PC-1", "setting": "[1]", "result": "↓"},
      {"measurement": "Predicted effect on mRNA expression, TNAP", "setting": "[1]", "result": "⇑"}
    ]}
  ]
}
